Measurements taken from patent publication US20160289285A1 (Molecular Partners, published 2016).
Residue numbers refer to the chain shown, from its start. “And” between values parts separate entries of the source, which are not always exact repeats. Identical values can stand only once. Like-named read-outs stand apart in the source and are kept apart here.

B1: human VEGF-A (ligand, UniProt P15692-4 27-191, looked up)
chain: APMAEGGGQNHHEVVKFMDVYQRSYCHPIETLVDIFQEYPDEIEYIFKPSCVPLMRCGGCCNDEGLECVPTEESNITMQIMRIKPHQGQHIGEMSFLQHNKCECRPKKDRARQENPCGPCSERRKHLFVQDPQTCKCSCKNTDSRCKARQLELNERTCRCDKPRR
notes: Recombinant, bought or produced in CHO or Pichia pastoris; also called hVEGF-A
B2: Protein #134 (designed binder)
chain: GSDLGKKLLEAARAGQDDEVRELLKAGADVNAKDYFSHTPLHLAARNGHLKIVEVLLKAGADVNAKDFAGKTPLHLAANEGHLEIVEVLLKAGADVNAQDIFGKTPADIAADAGHEDIAEVLQKAAGSPTPTPTTPTPTPTTPTPTPTGSDLGKKLLEAARAGQDDEVRILLKAGADVNAKDRYGDTPLHLAADIGHLEIVEVLLKAGADVNAEDYFGNTPLHLAASYGHLEIVEVLLKAGADVNAKDDYGNTPLHLAANTGHLEIVEVLLKAGADVNAQDKSGKTPADLAADAGHEDIAEVLQKAAGSPTPTPTTPTPTPTTPTPTPTGSDLDKKLLEAARAGQDDEVRILLKAGADVNAKDSTGWTPLHLAAPWGHPEIVEVLLKAGADVNAKDFQGWTPLHLAAAAGHLEIVEVLLKAGADVNAQDKSGKTPADLAADAGHEDIAEVLQKAAGSPTPTPTTPTPTPTTPTPTPTGSDLGKKLLEAARAGQDDEVRELLKAGADVNAKDYFSHTPLHLAARNGHLKIVEVLLKAGADVNAKDFAGKTPLHLAANEGHLEIVEVLLKAGADVNAQDIFGKTPADIAADAGHEDIAEVLQKAA
notes: Four designed ankyrin repeat domains (serum albumin, HGF, VEGF-A, serum albumin); one molecule is used here

Key:
[1] = biological target: T1, human HGF (human, UniProt P14210 32-728); assay: SPR (ProteOn), human HGF immobilised, injection scheme PBST-hVEGF-A-PBST
T1 construct: also called hepatocyte growth factor
T1 sequence (P14210 32-728 limits assumed): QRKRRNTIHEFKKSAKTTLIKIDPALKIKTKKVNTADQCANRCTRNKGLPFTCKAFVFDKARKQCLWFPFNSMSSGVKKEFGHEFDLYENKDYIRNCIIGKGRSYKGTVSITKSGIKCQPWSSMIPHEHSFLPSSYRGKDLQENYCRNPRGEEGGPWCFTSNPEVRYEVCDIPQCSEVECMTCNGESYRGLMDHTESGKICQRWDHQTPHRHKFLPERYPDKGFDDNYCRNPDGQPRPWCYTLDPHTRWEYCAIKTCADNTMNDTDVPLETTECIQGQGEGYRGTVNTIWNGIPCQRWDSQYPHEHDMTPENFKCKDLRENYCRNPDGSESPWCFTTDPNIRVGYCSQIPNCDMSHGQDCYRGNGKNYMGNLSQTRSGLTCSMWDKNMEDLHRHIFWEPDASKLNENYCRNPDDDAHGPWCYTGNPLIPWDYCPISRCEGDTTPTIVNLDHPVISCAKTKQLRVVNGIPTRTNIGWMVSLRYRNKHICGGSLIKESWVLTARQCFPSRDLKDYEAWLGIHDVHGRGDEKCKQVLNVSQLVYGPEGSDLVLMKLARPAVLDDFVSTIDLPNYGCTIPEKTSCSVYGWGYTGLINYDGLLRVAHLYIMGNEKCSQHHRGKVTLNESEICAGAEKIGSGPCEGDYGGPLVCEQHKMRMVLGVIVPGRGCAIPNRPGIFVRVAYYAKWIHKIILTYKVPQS
Method: FIG. 8. SPR analysis of recombinant binding proteins. […] The control injections indicate that no unspecific interaction occurs. RU: resonance units; t: time in seconds.
SPR was measured in a similar way as described in Example 2, with the following setup. 2700 RU human HGF were immobilized on a sensor chip. […] Following this, 100 nM human VEGF-A or PBST were injected for 180 seconds (leading to saturation) followed by a PBST wash of 360 seconds. Finally, 100 nM human serum albumin or PBST were injected for 180 seconds followed by a PBST wash of 600 seconds.

[2] = biological target: B1; assay: VEGF-A competition ELISA as in Example 3; competitor: immobilised anti-VEGF-A monoclonal antibody
Method: (§1) After washing away any unbound substances, an enzyme-linked polyclonal antibody specific for VEGF-A is added to the wells. Following a wash to remove any unbound antibody-enzyme reagent, a substrate solution is added to the wells and color develops in proportion to the amount of VEGF-A bound in the initial step. The color development is stopped and the intensity of the color is measured. […] IC₅₀ values were calculated from such titration curves obtained as described above using Graph Pad Prism software and standard procedures known to the person skilled in the art. For designed ankyrin repeat domains with binding specificity to HGF, a cMet receptor competition assay was performed. For that purpose, 5 nM of human cMet receptor in PBS were immobilized on Maxisorp plates overnight at 4° C. After washing with PBS 0.05% TWEEN 20, the plate was blocked for 2 h with shaking at 300 rpm using PBS containing 0.05% TWEEN 20 and 0.25% Casein at RT. A constant concentration of 5 nM human HGF was pre-incubated for 30 min at RT with a 1000 nM-1 pM of Proteins #23, #26, #28, and #29 (1:4 dilution series each) on a dilution plate in PBS 0.05% TWEEN 20. After washing of the ELISA plate with PBS 0.05% TWEEN, pre-incubated samples were transferred to the ELISA plate and plate was incubated for 2 h at RT with shaking at 300 rpm. […] Readout was done at A450 using A620 as reference wavelength. […]

[3] = biological target: T2, Human VEGF-C (human, UniProt P49767 103-227, limits assumed); assay: ELISA, immobilised target
T2 sequence (looked up): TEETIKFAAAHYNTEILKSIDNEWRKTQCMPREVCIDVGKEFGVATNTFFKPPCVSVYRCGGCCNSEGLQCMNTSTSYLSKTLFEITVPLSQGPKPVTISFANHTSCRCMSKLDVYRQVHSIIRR

[4] = biological target: T3, Human PDGF-AB (human, UniProt P04085 87-211; P01127 82-190, limits assumed); assay: ELISA, immobilised target
T3 construct: Heterodimer by its name
T3 sequence (P01127 82-190 limits assumed, chain 2 of 2, other chains not shown): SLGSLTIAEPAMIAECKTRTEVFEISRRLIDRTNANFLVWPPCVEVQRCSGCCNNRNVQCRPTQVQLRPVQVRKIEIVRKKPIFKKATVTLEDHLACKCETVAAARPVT

[5] = biological target: B1; assay: ELISA, immobilised target
[6] = biological target: biotinylated VEGF-A165 (Reliatech, #300-076Bi-L) (UniProt P15692-4 27-191, biotinylated); assay: VEGF-A/VEGFR-2 competition FRET (HTRF); 10 nM VEGF-R2-Fc, 10 nM biotinylated VEGF-A165
Method: Such competition FRET and ELISA assays are well known to the person skilled in the art. […] In parallel, 5 μl of Streptavidin-Tb (streptavidin-Lumi4-terbium cryptate donor, Cisbio #610SATLB) and 5 μl of PAb anti-hIgG-de (D2-conjugated goat anti-Human IgG, Cisbio #61 HFCDAA) were added to 500 μl of PBST-BSA buffer and incubated for 20 minutes (2× reagent). Ten μl/well of 2× reagent were dispensed in a 384-well HTRF white-plate (Thermo Fisher Scientific Inc.) and 5 μl/well of four-time concentration hVEGF-R2-Fc fusion (Reliatech #SFC-008) were added. Five μl of the preincubated competition mixture were then added to wells. The complete reaction mix was incubated in the dark for 1 hour at room temperature before the fluorescence read out using a fluorescence reader. […] The read-out was done for A665 nm and […] wavelength (Excitation 340 nm).

[7] = biological target: T1, human HGF; assay: HGF/cMet competition ELISA as in Example 3
Method: as §1

[8] = biological target: cynomolgus monkey HGF (cynomolgus monkey, UniProt C9E9X5 32-728); assay: ELISA, immobilised target
Method: (§2) 100 μl or 50 μl of 20 nM target (VEGF-A, HGF, or serum albumin) in PBS per well were immobilized in a Maxisorp plate (Nunc, Denmark) overnight at 4° C. After washing 5 times with 300 μl PBST (PBS supplemented with 0.1% Tween 20), the wells were blocked with 300 μl PBST-C (PBST supplemented with 0.25% casein) for 2 h at room temperature with shaking at 450 rpm on a Titramax 1000 shaker (Heidolph, Germany). […] After washing 5 times as described above, bound anti-designed ankyrin repeat domain antibody was detected using 100 μl or 50 μl/well goat anti-rabbit IgG-HRP conjugate in PBST-C for 1 h at room temperature with shaking at 450 rpm. After washing 5 times as described above, the ELISA was then developed using 100 μl BM soluble blue POD substrate (Roche, Switzerland), diluted 1:4 in water. The reaction was stopped after 5 min using 100 μl 1 M H₂SO₄. The OD (OD 450 nm-OD 620 nm) was then recorded.
(§3) Cynomolgus monkey VEGF-A is identical to human VEGF-A and was thus not tested separately.

[9] = biological target: rat serum albumin (rat, UniProt P02770 25-608); assay: ELISA, immobilised target
Chain of rat serum albumin (P02770 25-608 limits assumed): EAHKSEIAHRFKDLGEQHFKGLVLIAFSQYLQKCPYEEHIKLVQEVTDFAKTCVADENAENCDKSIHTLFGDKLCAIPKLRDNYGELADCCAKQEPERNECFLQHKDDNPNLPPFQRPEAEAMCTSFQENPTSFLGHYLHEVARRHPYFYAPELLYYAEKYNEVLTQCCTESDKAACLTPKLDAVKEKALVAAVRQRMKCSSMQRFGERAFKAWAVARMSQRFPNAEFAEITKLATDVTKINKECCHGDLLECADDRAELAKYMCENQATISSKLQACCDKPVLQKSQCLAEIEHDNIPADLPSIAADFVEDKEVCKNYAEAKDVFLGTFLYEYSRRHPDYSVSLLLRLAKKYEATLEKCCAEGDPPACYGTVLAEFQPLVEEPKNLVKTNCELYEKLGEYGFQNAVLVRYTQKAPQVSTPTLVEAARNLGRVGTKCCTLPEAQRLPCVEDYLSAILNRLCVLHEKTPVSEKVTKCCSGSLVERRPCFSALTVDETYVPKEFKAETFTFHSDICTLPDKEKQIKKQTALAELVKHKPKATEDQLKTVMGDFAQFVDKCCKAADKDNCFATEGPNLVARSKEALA
Method: as §2, §3

[10] = biological target: cynomolgus monkey serum albumin (cynomolgus monkey, UniProt A2V9Z4 25-608); assay: ELISA, immobilised target
Chain of cynomolgus monkey serum albumin (A2V9Z4 25-608 limits assumed): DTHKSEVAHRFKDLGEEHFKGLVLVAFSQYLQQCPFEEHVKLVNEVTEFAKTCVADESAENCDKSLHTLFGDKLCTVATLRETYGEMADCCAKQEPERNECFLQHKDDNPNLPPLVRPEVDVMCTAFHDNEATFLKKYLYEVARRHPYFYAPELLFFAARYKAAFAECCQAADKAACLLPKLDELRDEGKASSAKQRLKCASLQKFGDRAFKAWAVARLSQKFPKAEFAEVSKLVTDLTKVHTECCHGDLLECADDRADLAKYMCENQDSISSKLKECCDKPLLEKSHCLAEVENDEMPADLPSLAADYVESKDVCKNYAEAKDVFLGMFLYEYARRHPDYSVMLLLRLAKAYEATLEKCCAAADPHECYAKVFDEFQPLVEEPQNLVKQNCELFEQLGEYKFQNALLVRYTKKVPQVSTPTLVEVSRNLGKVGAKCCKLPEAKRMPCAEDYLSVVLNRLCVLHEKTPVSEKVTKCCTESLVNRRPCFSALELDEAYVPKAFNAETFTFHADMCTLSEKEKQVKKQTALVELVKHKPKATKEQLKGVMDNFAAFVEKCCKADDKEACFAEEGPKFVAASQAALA
Method: as §2, §3

[11] = biological target: T4, human serum albumin (human, UniProt P02768 25-609); assay: ELISA, immobilised target
T4 construct: For SEC-MALS purified from CSL Behring 20% solution; also called HSA; SA (human)
T4 sequence (P02768 25-609 limits assumed): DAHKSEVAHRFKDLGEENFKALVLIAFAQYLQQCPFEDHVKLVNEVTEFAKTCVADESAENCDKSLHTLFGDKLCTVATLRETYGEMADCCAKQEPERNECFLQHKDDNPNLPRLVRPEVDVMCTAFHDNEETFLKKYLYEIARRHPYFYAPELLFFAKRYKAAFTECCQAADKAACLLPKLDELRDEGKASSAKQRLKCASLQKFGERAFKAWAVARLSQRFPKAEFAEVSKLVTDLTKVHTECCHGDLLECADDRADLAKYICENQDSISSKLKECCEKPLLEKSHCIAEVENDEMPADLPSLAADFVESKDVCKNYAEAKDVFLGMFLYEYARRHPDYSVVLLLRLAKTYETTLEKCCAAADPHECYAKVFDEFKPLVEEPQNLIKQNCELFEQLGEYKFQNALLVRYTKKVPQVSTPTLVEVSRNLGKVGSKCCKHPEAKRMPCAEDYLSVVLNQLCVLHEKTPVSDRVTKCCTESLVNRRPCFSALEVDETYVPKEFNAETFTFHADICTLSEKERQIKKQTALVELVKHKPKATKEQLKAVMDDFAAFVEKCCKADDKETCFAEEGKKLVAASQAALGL
Method: as §2, §3

[12] = biological target: T5, rat VEGF-A (rat, UniProt P16612-2 27-190, limits assumed); assay: ELISA, immobilised target
T5 sequence (looked up): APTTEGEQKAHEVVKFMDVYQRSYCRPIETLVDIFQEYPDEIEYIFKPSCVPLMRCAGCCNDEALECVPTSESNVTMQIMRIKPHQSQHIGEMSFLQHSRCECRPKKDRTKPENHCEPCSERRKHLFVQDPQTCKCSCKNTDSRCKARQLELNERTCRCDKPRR
Method: as §2, §3

[13] = biological target: B1; assay: ELISA, immobilised target; remark: listed apart in the source
Method: as §2, §3

[14] = biological target: dog serum albumin (dog, UniProt P49822 25-608); assay: ELISA, immobilised target
Chain of dog serum albumin (P49822 25-608 limits assumed): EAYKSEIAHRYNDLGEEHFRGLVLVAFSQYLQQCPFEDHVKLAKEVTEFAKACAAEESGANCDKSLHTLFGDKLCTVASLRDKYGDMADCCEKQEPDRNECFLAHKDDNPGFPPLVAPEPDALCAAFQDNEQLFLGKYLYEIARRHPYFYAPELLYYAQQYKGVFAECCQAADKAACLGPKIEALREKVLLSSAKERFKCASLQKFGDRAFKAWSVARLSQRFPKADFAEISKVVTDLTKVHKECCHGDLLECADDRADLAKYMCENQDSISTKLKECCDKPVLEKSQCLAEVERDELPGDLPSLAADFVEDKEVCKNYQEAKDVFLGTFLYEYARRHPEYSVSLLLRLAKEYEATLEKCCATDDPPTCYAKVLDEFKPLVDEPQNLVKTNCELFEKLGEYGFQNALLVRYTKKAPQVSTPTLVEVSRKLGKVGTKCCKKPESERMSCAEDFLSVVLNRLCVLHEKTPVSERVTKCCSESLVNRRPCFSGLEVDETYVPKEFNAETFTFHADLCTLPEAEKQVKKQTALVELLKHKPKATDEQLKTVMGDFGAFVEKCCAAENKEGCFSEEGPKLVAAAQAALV
Method: as §2, §3

[15] = biological target: mouse serum albumin (mouse, UniProt P07724 25-608); assay: ELISA, immobilised target
Method: as §2, §3

[16] = biological target: mouse HGF (mouse, UniProt Q08048 33-728); assay: ELISA, immobilised target
Chain of mouse HGF (Q08048 33-728 limits assumed): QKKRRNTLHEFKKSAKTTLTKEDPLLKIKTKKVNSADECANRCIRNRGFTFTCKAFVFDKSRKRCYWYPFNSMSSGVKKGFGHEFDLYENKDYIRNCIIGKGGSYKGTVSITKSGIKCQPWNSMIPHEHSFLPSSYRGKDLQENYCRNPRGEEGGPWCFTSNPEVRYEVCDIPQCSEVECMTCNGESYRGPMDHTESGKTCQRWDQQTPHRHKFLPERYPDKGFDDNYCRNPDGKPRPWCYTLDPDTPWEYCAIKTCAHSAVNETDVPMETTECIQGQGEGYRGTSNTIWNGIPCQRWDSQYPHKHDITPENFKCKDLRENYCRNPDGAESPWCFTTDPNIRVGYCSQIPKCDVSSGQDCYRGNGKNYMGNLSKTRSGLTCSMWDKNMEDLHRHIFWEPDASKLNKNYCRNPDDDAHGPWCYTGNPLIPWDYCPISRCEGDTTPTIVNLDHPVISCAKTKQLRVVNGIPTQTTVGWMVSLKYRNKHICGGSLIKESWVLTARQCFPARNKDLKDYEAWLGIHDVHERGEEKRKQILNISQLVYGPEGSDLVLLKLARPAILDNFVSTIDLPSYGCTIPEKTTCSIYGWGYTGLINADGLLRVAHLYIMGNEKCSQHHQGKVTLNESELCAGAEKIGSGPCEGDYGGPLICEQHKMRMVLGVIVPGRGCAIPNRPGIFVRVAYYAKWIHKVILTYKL
Method: as §2, §3

[17] = biological target: T1, human HGF; assay: ELISA, immobilised target
Method: as §2, §3

[18] = biological target: T6, mouse VEGF-A (mouse, UniProt Q00731-2 27-190, limits assumed); assay: ELISA, immobilised target
T6 sequence (looked up): T5 sequence (looked up) with A10S, V14I, V75I
Method: as §2, §3

[19] = biological target: B1; assay: VEGF-A competition binding ELISA (FIG. 7C)
Method: as §1

[20] = biological target: B1; assay: cell-based or functional assay
[21] = biological target: T1, human HGF; assay: cell-based or functional assay

B1
binding result [1]: no binding (tested: 100 nM)

B2
IC50 [2]: 0.0045 nM | binding result [3]: no binding (tested: 100 nM to 0.01 pM) | binding result [4]: no binding (tested: 100 nM to 0.01 pM) | EC50 [5]: 0.024 nM | IC50 [6]: 0.6 nM | IC50 [7]: 0.92 nM | EC50 [8]: 0.04 nM | EC50 [9]: 0.017 nM | EC50 [10]: 0.017 nM | EC50 [11]: 0.013 nM | EC50 [12]: 0.022 nM | EC50 [13]: 0.024 nM | EC50 [14]: 0.023 nM | EC50 [15]: 0.015 nM | EC50 [16]: 0.045 nM | EC50 [17]: 0.024 nM | EC50 [18]: 0.021 nM | IC50 [19]: < 0.01 nM | Inhibition of VEGF-A-induced HUVEC proliferation, IC50 [20]: 5.7 ng/ml and 91.3 pM | inhibition of proliferation of HUVECs, IC50 [20]: 0.1 to 0.15 nM | Inhibition of cMet phosphorylation in A549 cells, IC50 [21]: 0.184 nM | inhibition of cMet phosphorylation in A549 cells, IC50 [21]: < 1 nM
